In test [1] the target is ROP5 of T. gondii strain RH-YFP (isoforms not told apart) (UniProt F2YGR7). Briefly: pull-down (quantitated Western blot). To be noted: 25 µg protein/100 µl 1:1 bead suspension; RH-YFP strain T. gondii lysates; 3E2 antibody (anti-ROP5); GST signal subtracted; parent: est. 100; read off a plot. For orientation: Immunoblotting shows a protein as a band on a membrane.
For a further test, the target named is GST-Irga6-D164A (mouse) (UniProt Q9QZ85). Briefly: pull-down; GST-IRG fusion (25 or 50 µg per 100 µl 1:1 bead suspension) on Glutathione Sepharose 4B; postnuclear NP-40 lysate of RH-YFP T. gondii; o/n at 4°C; with or without 1 mM GDP; Western blot with mAb 3E2 (ROP5) or anti-ROP18 antiserum; GST-loaded beads as control.
Chain of GST-Irga6-D164A (mouse) (Q9QZ85 1-411 D164A): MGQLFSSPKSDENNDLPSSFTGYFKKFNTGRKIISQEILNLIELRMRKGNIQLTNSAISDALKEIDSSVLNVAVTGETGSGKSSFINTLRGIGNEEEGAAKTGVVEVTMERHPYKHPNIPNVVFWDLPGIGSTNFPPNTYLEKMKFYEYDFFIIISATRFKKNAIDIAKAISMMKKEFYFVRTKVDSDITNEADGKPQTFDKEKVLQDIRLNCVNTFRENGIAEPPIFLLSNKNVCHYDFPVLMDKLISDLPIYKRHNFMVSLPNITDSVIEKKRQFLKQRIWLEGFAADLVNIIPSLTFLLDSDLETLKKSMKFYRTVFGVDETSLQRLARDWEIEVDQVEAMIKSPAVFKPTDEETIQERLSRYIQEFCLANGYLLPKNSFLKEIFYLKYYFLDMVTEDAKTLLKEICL

Chain of GST-Irga6 (Q9QZ85 1-411, stated change not applied): as the sequence (Q9QZ85 1-411 D164A) above, with A164D counted along it
Chain of ROP5 of T. gondii strain RH-YFP (isoforms not told apart) (UniProt F2YGR7) (F2YGR7 25-549): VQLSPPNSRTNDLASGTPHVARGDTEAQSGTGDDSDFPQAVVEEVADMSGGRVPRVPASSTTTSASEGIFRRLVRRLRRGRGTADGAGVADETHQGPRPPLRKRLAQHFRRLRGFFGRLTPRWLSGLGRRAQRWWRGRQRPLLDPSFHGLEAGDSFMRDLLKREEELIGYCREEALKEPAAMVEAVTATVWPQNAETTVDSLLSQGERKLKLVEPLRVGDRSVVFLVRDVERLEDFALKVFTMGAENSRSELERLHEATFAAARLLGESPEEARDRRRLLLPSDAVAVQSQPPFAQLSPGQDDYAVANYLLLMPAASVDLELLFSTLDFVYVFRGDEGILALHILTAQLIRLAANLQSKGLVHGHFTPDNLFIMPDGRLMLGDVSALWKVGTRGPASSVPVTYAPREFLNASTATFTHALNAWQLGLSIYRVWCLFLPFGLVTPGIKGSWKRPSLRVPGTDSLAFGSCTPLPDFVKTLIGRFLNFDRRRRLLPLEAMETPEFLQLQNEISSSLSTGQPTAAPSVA
Chain of ROP5 of T. gondii strain RH-YFP (isoforms not told apart) (from UniProt F2YGR7 25-549) (natural protein) (F2YGR7 25-549): as above

Take GST-Irga6 (from UniProt Q9QZ85) D206R: the percent of parent (% of wild-type intensity) in test [1] came to 68.

For the substance “ROP5 of T. gondii strain RH-YFP (isoforms not told apart) (from UniProt F2YGR7 25-549) (natural protein)”, in the test with GST-Irga6-D164A (mouse), the percent of ROP5 binding blocked (against wt GST-Irga6) is over 95%.

For the origin of these results see PMC3393671.
